Experimental data reported in patent US20240132593A1 (KINETA, published 2024).
Substitutions are numbered along the chain they refer to. Names and notes keep the numbering of the source.

B1: Spiked Peptide 23 (LYCCLVVEIRHHHSE) (peptide)
peptide: LYCCLVVEIRHHHSE
notes: synthetic overlapping peptide from human VISTA
B2: Spiked Peptide 24 (VVEIRHHHSEHRVHG) (peptide)
peptide: VVEIRHHHSEHRVHG
notes: as for B1
B3: Spiked Peptide 25 (HHHSEHRVHGAMELQ) (peptide)
peptide: HHHSEHRVHGAMELQ
notes: as for B1
B4: Spiked Peptide 26 (HRVHGAMELQVQTGK) (peptide)
peptide: HRVHGAMELQVQTGK
notes: as for B1
B5: Spiked Peptide 27 (AMELQVQTGKDAPSN) (peptide)
peptide: AMELQVQTGKDAPSN
notes: as for B1
B6: Spiked Peptide 28 (VQTGKDAPSNCVVYP) (peptide)
peptide: VQTGKDAPSNCVVYP
notes: as for B1
B7: Spiked Peptide 29 (DAPSNCVVYPSSSQE) (peptide)
peptide: DAPSNCVVYPSSSQE
notes: as for B1
B8: Spiked Peptide 30 (CVVYPSSSQESENIT) (peptide)
peptide: CVVYPSSSQESENIT
notes: as for B1
B9: Spiked Peptide 31 (SSSQESENITAA) (peptide)
peptide: SSSQESENITAA
notes: as for B1
B10: Antibody No. 474.1 with VH Y32H, VH Y52H (antibody, V domains shown)
VH: QVQLQESGPGLVKPSETLSLTCTVSGGSISSHYWSWIRQPPGKGLEWIGYIHYSGSTNYNPSLKSRVTISVDTSKSQFSLKLSSVTAADTAVYYCARDIPAFAFDIWGQGTMVIVSS
VL: EIVLTQSPATLSLSPGERATLSCRASQSVSYYLAWYQQKPGQAPRLLIYDAFNRATGIPARFSGSGSGTDFTLTISSLEPEDFAVYYCQQRINWPLTFGGGTKVEIK
B11: Antibody No. 474.1 with VH Y32H, VH Y33H (antibody, V domains shown)
VH: B10 VH with Y33H, H52Y
VL: B10 VL
B12: Antibody No. 474.1 with VH Y32H, VH Y33H, VH Y52H (antibody, V domains shown)
VH: B10 VH with Y33H
VL: B10 VL
B13: Antibody No. 474.1 with VL Y31H, VH Y32H (antibody, V domains shown)
VH: B10 VH with H52Y
VL: B10 VL with Y31H
B14: Antibody No. 474.1 with VL Y31H, VH Y32H, VH Y33H (antibody, V domains shown)
VH: B10 VH with Y33H, H52Y
VL: B10 VL with Y31H
B15: Antibody No. 474.1 with VL Y31H, VH Y32H, VH Y52H (antibody, V domains shown)
VH: B10 VH
VL: B10 VL with Y31H
B16: Antibody No. 474.1 with VL Y31H, VH Y52H (second of two rows so labelled, the 40th table r13) (antibody, human IgG1, V domains shown)
VH: B10 VH with H32Y
VL: B10 VL with Y31H
B17: Antibody No. 474.1 with VL Y32H, VH Y32H (antibody, V domains shown)
VH: B10 VH with H52Y
VL: B10 VL with Y32H
B18: Antibody No. 474.1 with VL Y32H, VH Y32H, VH Y33H (antibody, V domains shown)
VH: B10 VH with Y33H, H52Y
VL: B10 VL with Y32H
B19: Antibody No. 474.1 with VL Y32H, VH Y32H, VH Y52H (antibody, V domains shown)
VH: B10 VH
VL: B10 VL with Y32H
B20: Antibody No. 474.1 with VL Y32H, VH Y33H (antibody, V domains shown)
VH: B10 VH with H32Y, Y33H, H52Y
VL: B10 VL with Y32H
B21: Antibody No. 474.1 with VL Y32H, VH Y52H (antibody, V domains shown)
VH: B10 VH with H32Y
VL: B10 VL with Y32H

Biological target: Antibody No. 245.1
Experiment: peptide blocking ELISA on plate-bound VISTA, peptide 2 ug/mL

| Binder | percent reduction in ELISA signal [%] |
| --- | --- |
| B1 | 9 |
| B2 | 8 |
| B3 | 10 |
| B4 | 0 |
| B5 | 0 |
| B6 | 0 |
| B7 | 0 |
| B8 | 0 |
| B9 | 0 |

Biological target: T1, Antibody No. 465.1
T1 construct: also called Ab No. 465.1
Experiment: as above

| Binder | percent reduction in ELISA signal [%] |
| --- | --- |
| B1 | 2 |
| B2 | 16 |
| B3 | 10 |
| B4 | 0 |
| B5 | 0 |
| B6 | 0 |
| B7 | 0 |
| B8 | 0 |
| B9 | 0 |

Biological target: VSTB174
Sequence (VH, as listed by the source, chain 1 of 2): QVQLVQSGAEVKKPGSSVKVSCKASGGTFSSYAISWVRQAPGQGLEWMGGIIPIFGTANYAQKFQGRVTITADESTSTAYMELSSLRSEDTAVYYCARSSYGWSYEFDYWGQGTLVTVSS
Sequence (VL, as listed by the source, chain 2 of 2): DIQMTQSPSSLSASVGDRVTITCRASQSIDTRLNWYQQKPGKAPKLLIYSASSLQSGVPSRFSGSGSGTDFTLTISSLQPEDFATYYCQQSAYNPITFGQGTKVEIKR
Experiment: as above

| Binder | percent reduction in ELISA signal [%] |
| --- | --- |
| B1 | 31 |
| B2 | 48 |
| B3 | 45 |
| B4 | 17 |
| B5 | 13 |
| B6 | 0 |
| B7 | 8 |
| B8 | 12 |
| B9 | 15 |

Biological target: Antibody No. 245.1
Experiment: peptide blocking ELISA on plate-bound VISTA, peptide 20 ug/mL

| Binder | percent reduction in ELISA signal [%] |
| --- | --- |
| B1 | 37 |
| B2 | 41 |
| B3 | 52 |
| B4 | 0 |
| B5 | 0 |
| B6 | 5 |
| B7 | 0 |
| B8 | 0 |
| B9 | 8 |

Biological target: T1, Antibody No. 465.1
Experiment: as above

| Binder | percent reduction in ELISA signal [%] |
| --- | --- |
| B1 | 36 |
| B2 | 43 |
| B3 | 67 |
| B4 | 2 |
| B5 | 3 |
| B6 | 0 |
| B7 | 14 |
| B8 | 0 |
| B9 | 5 |

Biological target: VSTB174
Experiment: as above

| Binder | percent reduction in ELISA signal [%] |
| --- | --- |
| B1 | 67 |
| B2 | 82 |
| B3 | 83 |
| B4 | 25 |
| B5 | 24 |
| B6 | 5 |
| B7 | 10 |
| B8 | 21 |
| B9 | 27 |

Biological target: T2, VISTA-His ECD (Sino Biological 13482-H08H) (human, UniProt Q9H7M9 33-194)
T2 construct: Bought protein; also called VISTA-ECD; not shown: His tag
Experiment: BLI (Octet K2), ratio of off-rates at pH 7.4 to control Ab No. 245.1

| Binder | Kdis (pH 7.4) ÷ Kdis, Ab No. 245.1 (pH 7.4) [s⁻¹] |
| --- | --- |
| B10 | 5 |
| B11 | 4 |
| B12 | 14 |
| B13 | 12 |
| B14 | 68 |
| B15 | 61 |
| B16 | 37 |
| B17 | 15 |
| B18 | 56 |
| B19 | 71 |
| B20 | 52 |
| B21 | 45 |

Biological target: T2, VISTA-His ECD (Sino Biological …)
Experiment: BLI (Octet K2), ratio of the pH 6.0 fold change to the pH 7.4 fold change

| Binder | ΔKdis (pH 6.0)/ΔKdis (pH 7.4) |
| --- | --- |
| B10 | 3.4 |
| B11 | 6.9 |
| B12 | 5.2 |
| B13 | 5.8 |
| B14 | 1.5 |
| B15 | 2 |
| B16 | 3.8 |
| B17 | 5.9 |
| B18 | 2.4 |
| B19 | 1.8 |
| B20 | 2.7 |
| B21 | 3.4 |
